Experimental data from patent US20070014810A1 (published 2007).

Molecular target: T1, HLA-A*2601 (human)
T1 construct: purified HLA molecule
Assay: inhibition of 125I-labelled probe peptide binding to purified HLA, gel filtration; standard peptide

IC50: 1 nM
Binder: ETFGFEIQSY [standard peptide ETFGFEIQSY]
